Laboratory results: article PMC3386930, “Altering APP Proteolysis: Increasing sAPPalpha Production by Targeting Dimerization of the APP Ectodomain” (PLoS ONE, 2012)

Experiments:
eAPP230–624 [1] = target: T1, eAPP230–624 (Homo sapiens, UniProt P05067); assay: Small-angle X-ray scattering (SAXS) of eAPP230–624 complexes; type: binding; details: for Dmax / Rg: SAXS, GNOM, eAPP230–624 with peptide; for Dmax: maximum dimension, max. estimated error ±10 Å; for Rg: radius of gyration, max. estimated error ±2 Å
T1 construct: made in house
Method: The samples were incubated on ice for 20 minutes and then concentrated to 50 µl with 10-kDa cutoff concentrators (Millipore). […] Samples of the filtrates were used for buffer subtraction.
The samples were then concentrated and purified with a Superdex S200 size-exclusion column with 20 mM Tris pH 7.4, 100 mM sodium chloride and 2 mM EDTA. Samples of the protein buffer from the size-exclusion columns were used for buffer subtraction.
Data collection and processing
Small-angle X-ray scattering data were collected using protein concentrations in the range of 0.5–3 mg/ml and an X-ray wavelength of 1.11 Å at beam line 12.3.1 (Advanced Light Source). Data were integrated with software customized for the beam line and processed with the program PRIMUS [30]. The program GNOM [31] was used to calculate the maximum dimension and the radius of gyration and to estimate the intensity of the scattering at zero angle for higher concentration samples.

eAPP230–624 [2] = target: T1, eAPP230–624; assay: Intrinsic tryptophan fluorescence of eAPP230–624; type: binding; details: for inhibition of eAPP dimerization (in words): legend of titration of 0.64 µM eAPP230–624 with 0–60 µM fragment; for log(EC50), EC50 = molar ratio Aβ to eAPP230–624 that invokes half the response: quenching at 375 nm, equation 4, n constrained to 7, R^2 = 0.88, differences not significant at p<0.05
Method: The excitation spectra of the intrinsic tryptophan fluorescence were recorded using either a Shimadzu RF-530PC (Shimadzu Scientific Instruments) or a Spectramax XPS spectrophotometer (Molecular Devices).
Full emission spectra were measured with the Shimadzu RF-530PC using a 3 ml quartz cuvette, a 5 nm slit width and protein concentrations between 0.2–0.6 µM. […] For these larger dilutions, control titrations with the protein alone were used to generate a scaling matrix where the scale factor was both a function of wavelength and dilution. […] A similar scaling matrix was used to correct for the effect of dilution with DMSO. […] All titrations were performed at 24°C. The oligomers were stored on ice during the experiment.
These concentrations are analogous to concentrations used to create complexes for the small angle x-ray scattering analysis. The incubated material was diluted with PBS so that the final protein concentration was 0.5 µM. The spectra were recorded with the Shimadzu […].
For experiments with the Spectromax XPS plate reader, an excitation wavelength of 295 nm was used. This excitation wavelength was chosen to minimize both the contribution of tyrosine in the protein and the background fluorescence of the 96-well plates (Costar #3915).
For the quenching experiments, the data were analyzed by constructing Stern-Volmer plots, F0/F vs. Q, where Fo is the intensity of the fluorescence at zero concentration, F is the intensity of the fluorescence, and Q is the concentration of the quenching agent. When quenching is through either a static (binding) or dynamic (collisional) mechanism this plot is linear and follows the equation: [drawing 1] (1) where Ksv is the quenching constant. When both processes are present the Stern-Volmer plot is quadratic: [drawing 2] (2) where KD is the equilibrium constant associated with dynamic quenching and Ks is the equilibrium constant associated with static quenching. All parameters were determined using PRISM (GraphPad) and the appropriate non-linear curve fitting routine.
The centroid wavelength (λc) was calculated as: [drawing 3] (3) where I(λi) is the intensity observed for the wavelength (λi). The range of wavelengths was 310–390 nm.

[3] = target: MBP-eAPP_(230–624), maltose binding protein fusion protein containing residues 230–624 (UniProt P05067); assay: small-angle X-ray scattering (SAXS); 150 µl MBP-eAPP230-624 (≈0.5 mg/ml) diluted with 400 µl of peptide solution, 20 minutes on ice, concentrated to 50 µl with 10-kDa cutoff concentrators
[4] = target: TRX-eAPP_(290–624), thioredoxin fusion protein containing residues 290–624 of APP695 (UniProt P05067); assay: small-angle X-ray scattering (SAXS); eAPP fragment incubated on ice with Aβ oligomers or Aβ fragments (peptide less than 10 µM), concentrated and purified on Superdex S200 in 20 mM Tris pH 7.4, 100 mM sodium chloride, 2 mM EDTA
[5] = target: the molecule itself; assay: small-angle X-ray scattering (SAXS); eAPP fragment alone; 0.5–3 mg/ml, X-ray wavelength 1.11 Å; relative mass from I(0) against albumin and the eAPP fragment dimer
[6] = incubated, 1:6 molar ratio, 0.5 µM eAPP230–624

Molecule: 7-kDa Aβ1-40: 7-kDa Aβ1-40 dimers, prepared by sonication and 15 minutes incubation
- MWcalc/MWseq (eAPP230–624 [1]; SAXS relative mass, MWseq 45-kDa for eAPP230–624, max. error ±0.2, monomer around 1.3, protein alone 2.0): 1.2
- Dmax (eAPP230–624 [1]): 180 Å
- Rg (eAPP230–624 [1]): 49 Å
- inhibition of eAPP dimerization (in words) (eAPP230–624 [2]): inhibit eAPP dimerization

Molecule: 13-kDa Aβ1-40: 13-kDa Aβ1-40 oligomer pool
- more oligomers that can bind eAPP (ratio of amplitudes A) (eAPP230–624 [2]; from ratio of amplitudes of maximal response, vs 70-kDa pools, Spectramax XPS): about 150%
- blue-shift in the centroid wavelength (eAPP230–624 [2]; [6]): did not produce a significant blue shift
- fluorescence intensity relative to eAPP230–624 (eAPP230–624 [2]; [6]): 80%
- log(EC50), EC50 = molar ratio Aβ to eAPP230–624 that invokes half the response (eAPP230–624 [2]; Spectramax XPS): 1.27±0.02

Molecule: 13-kDa Aβ1-42: 13-kDa Aβ1-42 oligomers, predominately trimers
- increase in intensity of the fluorescence (eAPP230–624 [2]; rapid dilution, final 1:27 molar ratio, 0.64 µM eAPP230–624, Shimadzu RF-530PC): 114%

Molecule: 20-kDa Aβ1-42: 20-kDa Aβ1-42 oligomers
- Dmax (eAPP230–624 [1]): 170 Å
- Rg (eAPP230–624 [1]): 46 Å

Molecule: 70-kDa Aβ1-40: 70-kDa Aβ1-40 oligomer pool
- log(EC50), EC50 = molar ratio Aβ to eAPP230–624 that invokes half the response (eAPP230–624 [2]; Spectramax XPS): 1.32±0.01

Molecule: Aβ1-42 species greater than 200-kDa: Aβ1-42 species greater than 200-kDa in size
- effect on intrinsic fluorescence at 375 nm (in words) (eAPP230–624 [2]; Spectramax XPS, increasing molar ratio, up to 120 µM Aβ): slight enhancement of the intrinsic fluorescence
- change in fluorescence spectra (in words) (eAPP230–624 [2]; [6]): relatively minor change in the fluorescence spectra

Molecule: Aβ5-14: Aβ fragment (RHDSGYEVHH; Amyloid-beta protein 42; UniProt P05067 676-685, looked up, fragment)
- inhibition of eAPP dimerization (in words) (eAPP230–624 [2]): inhibit eAPP dimerization

Molecule: Aβ10-20 (peptide)
- MWcalc/MWseq (apparent mass of the sample over the sequence mass of the eAPP fragment) [3]: 1.3

Molecule: Aβ11-17 (peptide)
- MWcalc/MWseq (apparent mass of the sample over the sequence mass of the eAPP fragment) [4]: 1.2

Molecule: Aβ12-24: Aβ fragment (VHHQKLVFFAEDV; Amyloid-beta protein 42; UniProt P05067 683-695, looked up, fragment)
- inhibition of eAPP dimerization (in words) (eAPP230–624 [2]): inhibit eAPP dimerization

Molecule: Aβ12-28: Aβ fragment
- inhibition of eAPP dimerization (in words) (eAPP230–624 [2]): inhibit eAPP dimerization
- pattern of changes in the intrinsic fluorescence (in words) (eAPP230–624 [2]; titration of 0.64 µM eAPP230–624, 345 nm): acted like Aβ1-40 dimers in terms of the changes in the intrinsic fluorescence

B1: MBP-eAPP_(230–624), maltose binding protein fusion protein containing residues 230–624 (domain or fragment, UniProt P05067-4 230-624, looked up)
chain: EEEEVAEVEEEEADDDEDDEDGDEVEEEAEEPYEEATERTTSIATTTTTTTESVEEVVRVPTTAASTPDAVDKYLETPGDENEHAHFQKAKERLEAKHRERMSQVMREWEEAERQAKNLPKADKKAVIQHFQEKVESLEQEAANERQQLVETHMARVEAMLNDRRRLALENYITALQAVPPRPRHVFNMLKKYVRAEQKDRQHTLKHFEHVRMVDPKKAAQIRSQVMTHLRVIYERMNQSLSLLYNVPAVAEEIQDEVDELLQKEQNYSDDVLANMISEPRISYGNDALMPSLTETKTTVELLPVNGEFSLDDLQPWHSFGADSVPANTENEVEPVDARPAADRGLTTRPGSGLTNIKTEEISEVKMDAEFRHDSGYEVHHQKLVFFAEDVGSNK
notes: numbers count on: APP695; Dimer by SAXS; source: expressed and purified as previously described [18]
- stoichiometry N [5]: 2

B2: eAPP_(230–624), fragment of the APP ectodomain containing residues 230–624 (domain or fragment, UniProt P05067-4 230-624, looked up)
chain: B1 chain
notes: as for B1
- stoichiometry N [5]: 2

B3: TRX-eAPP_(290–624), thioredoxin fusion protein containing residues 290–624 of APP695 (domain or fragment, UniProt P05067-4 290-624, looked up)
chain: PTTAASTPDAVDKYLETPGDENEHAHFQKAKERLEAKHRERMSQVMREWEEAERQAKNLPKADKKAVIQHFQEKVESLEQEAANERQQLVETHMARVEAMLNDRRRLALENYITALQAVPPRPRHVFNMLKKYVRAEQKDRQHTLKHFEHVRMVDPKKAAQIRSQVMTHLRVIYERMNQSLSLLYNVPAVAEEIQDEVDELLQKEQNYSDDVLANMISEPRISYGNDALMPSLTETKTTVELLPVNGEFSLDDLQPWHSFGADSVPANTENEVEPVDARPAADRGLTTRPGSGLTNIKTEEISEVKMDAEFRHDSGYEVHHQKLVFFAEDVGSNK
notes: as for B1
- stoichiometry N [5]: 2
